Reference: article PMC7912905

Columns and labels:
[1] = target: β-catenin (mouse (endogenous in MEFs)) (UniProt Q02248); assay: FRET or BRET; FLIM-FRET on fixed, immunostained mitotic cells with normal A-type lamins (lmna wt MEFs); SC-35 donor (Cy3), β-catenin acceptor (Cy5); E ≥ 25% taken as interaction
[2] = target: phosphorylated form of RNA polymerase II (CTD repeat YSPTSPS, phospho S5), in mouse embryonic fibroblasts (mouse (endogenous in MEFs)) (UniProt P08775); assay: FRET or BRET; FLIM-FRET on fixed, immunostained interphase lmna wt cells (MEFs); SC-35 donor (secondary antibody Cy3), RNA polymerase II pS5 acceptor (secondary antibody Cy5); E ≥ 25% taken as interaction
[3] = target: phosphorylated form of RNAP II in both wt MEFs and HeLa cells; assay: FRET or BRET; FLIM-FRET on wt MEFs or HeLa cells transiently transfected with EGFP-SRSF2 (donor), fixed and immunostained for lamin A or RNA polymerase II pS5 (acceptor, secondary antibody Alexa Fluor 594); E ≥ 25% taken as interaction

Chain of EGFP-tagged SRSF2 (Q01130 whole entry): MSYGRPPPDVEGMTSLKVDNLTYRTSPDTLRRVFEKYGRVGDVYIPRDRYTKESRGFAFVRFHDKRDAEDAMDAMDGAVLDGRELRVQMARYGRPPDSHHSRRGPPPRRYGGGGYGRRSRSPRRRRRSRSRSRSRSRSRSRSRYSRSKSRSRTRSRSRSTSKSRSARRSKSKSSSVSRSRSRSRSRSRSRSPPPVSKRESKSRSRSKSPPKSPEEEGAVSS
Chain of β-catenin (mouse (endogenous in MEFs)) (Q02248 whole entry): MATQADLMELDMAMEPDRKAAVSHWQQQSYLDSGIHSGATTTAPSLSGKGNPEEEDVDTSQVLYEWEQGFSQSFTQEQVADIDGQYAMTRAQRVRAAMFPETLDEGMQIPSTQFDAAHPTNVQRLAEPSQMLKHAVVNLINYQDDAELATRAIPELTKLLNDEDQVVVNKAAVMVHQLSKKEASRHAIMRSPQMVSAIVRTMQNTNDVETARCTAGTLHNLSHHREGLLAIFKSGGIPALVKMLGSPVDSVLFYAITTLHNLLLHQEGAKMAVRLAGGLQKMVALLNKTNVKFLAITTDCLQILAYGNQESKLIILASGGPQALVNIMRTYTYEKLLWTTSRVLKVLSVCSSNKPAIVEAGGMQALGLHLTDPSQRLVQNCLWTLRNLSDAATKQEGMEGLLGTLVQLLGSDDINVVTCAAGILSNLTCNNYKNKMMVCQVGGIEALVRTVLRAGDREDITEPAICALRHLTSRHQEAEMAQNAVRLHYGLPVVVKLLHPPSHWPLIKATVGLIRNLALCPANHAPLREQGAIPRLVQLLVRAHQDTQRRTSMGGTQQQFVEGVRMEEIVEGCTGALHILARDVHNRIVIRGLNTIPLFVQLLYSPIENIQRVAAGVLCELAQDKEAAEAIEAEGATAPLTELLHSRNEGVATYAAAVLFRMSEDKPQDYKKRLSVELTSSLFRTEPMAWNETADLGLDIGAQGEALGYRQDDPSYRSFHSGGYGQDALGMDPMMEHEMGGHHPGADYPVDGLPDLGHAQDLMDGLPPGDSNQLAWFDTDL

Substance | FRET efficiency [1] | FRET efficiency [2] | FRET efficiency [3]
SC-35 protein (serine/arginine-rich splicing factor 2, encoded by the SRSF2 gene) (from UniProt Q62093 1-221) (natural protein) | 36.5% | 75% | –
EGFP-tagged SRSF2 (from UniProt Q01130 1-221) (natural protein) | – | – | 27 to 29%
